From the DeepSol protein solubility set

assay: soluble on expression in E. coli; label from the status in PepcDB or PDB records

| Sequence | soluble on expression in E. coli |
| --- | --- |
| MESLTLQPIARVDGTINLPGSKSVSNRALLLAALAHGKTVLTNLLDSDDVRHMLNALTALGVSYTLSADRTRCEIIGNGGPLHAEGALELFLGNAGIAMRSLAAALCLGSNDIVLTGEPRMKERPIGHLVDALRLGGAKITYLEQENYPPLRLQGGFTGGNVDVDGSVSSQFLTALLMTAPLAPEDTVIRIKGDLVSKPYIDITLNLMKTFGVEIENQHYQQFVVKGGQSYQSPGTYLVEGDASSASYFLAAAAIKGGTVKVTGIGRNSMQGDIRFADVLEKMGATICWGDDYISCTRGELNAIDMDMNHIPDAAMTIATAALFAKGTTTLRNIYNWRVKETDRLFAMATELRKVGAEVEEGHDYIRITPPEKLNFAEIATYNDHRMAMCFSLVALSDTPVTILDPKCTAKTFPDYFEQLARISQAA | soluble |
| MESLYTSTLSEISEEEIVKGRIVSISNKDVTIDVGFKSEGIVSLLEFRDDDEIKVGDDVEVYLENIEDKMGQLILSKRKADVLRIWDKIYDSIENDTIINGKIINRVKGGMTVSLSGVEAFLPGSQIDVKPVRDFDALVGKTMDFRVVKINPVTQNIVVSHKVILEEEYAAKREEMLANIKVGMVLEGTVKNITDFGIFVDLGGLDGLVHITDITWGRINHPSEVVELDQPIKVVVVGFDENTKRVSLGMKQLEAHPWENIEIKYPVGIKATGRVVSITDYGAFVEIEKGIEGLVHISEMSWTQHIKHPSQFVSLNQEVEVVILNIDKEHTKLSLSMKRVSEDPWIALSEKYVEGSLHKGTVSNITDFGVFVELEPGVDGLVHISDLSWTKKIRHPSELVKKGQELEVKVLKFDVNARRIALGHKQINNDPWGEFEQKYAVGAECTGAISQIIEKGVIVILPGEVDGFVPVSHLLQGGVKDIHSSFKIGDELPLRVIEFDKENKRIILSALEYFKDKSKEEIEAYLQAHPNEKKEIEAASAELEPQPKGR | not soluble |
| MESVESAARDYRETLAELRNNNKTQINLLTILADDFKKAAPQIVEVIERHLTTCSPSQKLLVMYVCDSILKNVKKPNDYDALFARKIVSMFEHAFRQGDERIRTSLYRIRVTWASTTLFMPSKLYELDMKINKLDPNWPISNPQTGRALRDDPQVMAPSQSRPAGNATSPAASTSTNRVFVNPKFIGSSTPGAASASKTVVEKTKSPGTVNKEKQVKKEPKQDPLDKLLPSSSASKTSSSPAGLKRKSAPSEHPNAPIRKKPQQPPKPQTAIDEDLRSISLTKKPPVPSAQDQDFRPKTLKPTSVIGSHAFAPVAAPIRPMIPVPPPVSVAPFVPAPPLSSAPPFQHPQQHHPQLPPPPVHQGMGRGYHHNSPPQDPAPIVPVQAPPPQQHLPAPENVYSSEQPKLDVPANNRIFVDGKAYEVMFVDDTAVIERGGAPHRIYFAGPPRNLVIDGIPHLLQFDTPTQIDILGSKHMVKFGAPSRELYIGGHPFKGQFGGPPIIATINGRRHEIRLTGSAPEVRIEPEPAYHLTHFLHKMREEKKIEIASEKPEKKEDWLSYLKNLRTRNILPAPARSPSSPRNQTPPPANLPIPGMNNAGQRGGYHNRHQPQQNARWGGANKQQNIPPPPSDPSPIGSGVEKRSAPPAAITDFNIRLLQIRYDSVVDALITKRADACKFCGMRLDDSQGKSKEWQDHMDWHVKQNLARHGSNNSAAVPYRQWYPSTSTWLTPRASDETNEQEADKPEEPLPGVASSGVKTKECSVCGEKFDEYYDDDEETWRLRDTVNVHGKIVHSACASDAARSLDNSSFFNDSDIKKEEPFD | not soluble |
| METETYTNSSHLGRKIERIRRLRGMTQTDLGELLGVTKQAISKMEQAEKIDDEKLKQVATALGVTEEGLKKFTEETVLYYTSNFYENCHVSASNIGPITHVENLNHFSMDQAVKLFEELLKIERDKYDKGKEESAK | not soluble |
| METFILSSDSDDDSGPPPSKRRTIEGIPRSFSGDKKIRFSFGASNMSQDTTQEIIPEDTDTVPLTIPSTPALSGKFDSKTPKSVRRRSVSMSCFTPIVETINQPPTNQACSSFLQKEYNFHDLSSDEEGGDGGAGCSKDEDKIIEDNLNLRALLSPEKKKRKEKIEEVQNEFYGVYCLISRSDRPCYKNRCYIGYTVDPNRRIMQHNGGRDKGGAKKTDSRGPWDMVCVVHGFPNHVAALHFEWAWQNPLVSKSLKEKQLRKERKETPFAFQLRIACELMNSSAFCRFALTFRWLITTEELPFPTSCVPPDHTKLRFGKVKKEMSLVPSKREDYLEMGECRICGKDIEKLWSLVRCISATCPSHFHSKCLSENGLKLKNEHVDHVYPLKANCPTCGQFYLWGDIIREQRRIIKISTKCAEEFQNMVVRKELPHREISPISSKK | not soluble |
| METFTVKMGADSGLLQFEPANVTVHPGDTVKWVNNKLPPHNILFDDKQVPGASKELADKLSHSQLMFSPGESYEITFSSDFPAGTYTYYCAPHRGAGMVGKITVEG | soluble |
| METIFEDEETMMAAEQSSSGISANSNSNCSASKTEKASKKPKNAIPKVKNSGIHKKPAKSDFDEFLSSMKSRLSQATSMKSNKEQLKMLEETQKLIFDRITKSADARDMEHLEKQMNKL | soluble |
| METKKQSESETYVERMVLPEDMDIYEYLYGGRLMEWIDNCASIVATKHCRKRTVTGSIDSLFFLLPIHLGDMVILHGYINYTTKSTMEIEIDVIKEEGLTGIRRYATKAYLTYVAIDSDGRPTEIPQIVPETDEEKRRYQDAEKRAEERRKRLESIKQQLASMVP | not soluble |
| METKTVAITMGDPAGIGPEIIVKALSEDGLNGAPLVVIGCLATLKRLQAKGITPNVELRAIERVAEARFAPGIIHVIDEPLAQPEALEAGKVQAQAGDLAYRCVKRATELALRGDVQAIATAPLNKEALHLAGHNYPGHTELLATLTHSRDYAMVLYTDKLKVIHVSTHIALRKFLDTLSTARVETVIGIADTFLKRVGYVKPRIAVAGVNPHAGENGLFGDEETRILTPAITDARAKGMDVYGPCPPDTVFLQAYEGQYDMVVAMYHDQGHIPLKLLGFYDGVNITAGLPFIRTSADHGTAFDIAWTGKAKSESMAVSIKLAMQLA | soluble |
| METPYHQRWLAFPDAVSSYRPLESRLAGTSRATADNRTPCTGRLGTPRVFLMATDDVSKAYSSPTFDAEALLGTVISAEDPDRVLIEPWATGVDGVILDVGSGTGRWTGHLASLGHQIEGLEPATRLVELARQTHPSVTFHHGTITDLSDSPKRWAGLLAWYSLIHMGPGELPDALVALRMAVEDGGGLLMSFFSGPSLEPMYHPVATAYRWPLPELAQALETAGFQVTSSHWDPRFPHAYLTAEASLEHHHHHH | soluble |
| METSPVFIDYVTIRQEYFGGGLPVLNDGKVLKVDADGEIEYSTDVRCIIEGSYDSRVQVRCDGNTVEFTGNISRYGRRDNLFGYDWPTTIARINDLLSLLGLPPFTSGKLYKFADTGWSWSGARVSRIDLTCNYSTGSKESMHAVLCHMAGQHVGRQKGSLSPDSGTVEYGRGSKYVYGKLYAKYQELEKHRSKKSGSHVSDDVIDYCKTEGILREEFTLKSRFLLQNNLAYLGAITQDNLNQILEHHHHHH | not soluble |
| MEVEIEDIDEVATLTETDIVEIQTKLIEDLQEMVVKDKEKHEKLLKLGEHVLDEQTRLRTRLSEEFGDFLNRSKRSLTRNFETADGNVYSFEKNLRELLHLYITVHNRVKQDEKEVAKQDEFLNQIDRNEMELKDLRDNIRSLRSELTVDVGPVSSVTSKTSGIEANFIVKPYKPLETELATQIVRVNRELEILKMQLPNCDHFPNLMNPVQKLGEKVTGMVMKDLPAKKLQDFLDTLPPMKRD | not soluble |
| MEVKEVELELSSEATFLSKTSIGEITAGEKGLNPMELLLVSIGSCSGVDVYHILKKKRQEVKDIKIFLKGKRREKHPKIYEEIEIKYVAVGKVEEKALEQAVKLSTEKYCSVLAMVKPSTNLKISWEVKWEE | soluble |
| MEYIPDNSDEGRIVAMTLAVALRRALASVLGVSATELGYAVRPVRLDNEQSVLAVQLYDIISGGAGFASSAPLHIEAVLKGMVKQLGCRHCDTACSECLLDSQTRHDHDQLDRKAAQAWLGEDFSHYIGLPEAEKLEHHHHHH | not soluble |
| MFALEVLALERRTALLLGASGLVGGELLKLLLQSDLYRCVTIFVRTPLPVEHEKLQQVVVDFARLESYERYFYVDDVFCCLGTTRKKAKTKQQFIQVDYEYTLRAAALAEKCRAKSFLTVSSVGANPCSPFFYQRVKGETEEALQRLSIPSLHIFRPSLLVGKRREFRLGEALGGWLLCRLPFLFVGKWKKYKPVDAHQLALAMFYRAASATSGVHIYECDELARIS | not soluble |
| MFALIQRGQIYTDRAGYPVEITRSTEHSVFFRRMDGRTGRVRIGEFSSLFEHIDHLEYHKILAETEQEKHLKKLRAMQRK | not soluble |
| MFCRDTLCDTTPAVTDFLNGLSAVASKSPCSGDGALSDGHNAQSRMPVMGHVFLTGLLCVSRLARKRQLLLKRLKQSALPPRASATPSMEDVAVQSPSAAADAGDTVFVRLVLSLLGHTLMKQATTAPCAASPGDNASPQAAPLPWWPATSAPSENAEDVVYDVQCVGNEDDHAGDNVGFSEEHAPGVGHMLFTASTSVHCRIVLRSHPVAIFSPAMMSELALDAEQRASVASRTWCHGGAPGTDSSEAVDAEADAGSCVARALEVFDACVRDHEEACLRQIAEIVGSLQRLLEKPATEVQSPGGLASTGSPSDSANASASRLGGCASPLHEWTIDVPIYGVVLYIEDTHATRLERVRRLTTPLLQAATGCGNAAGGPLGPVTQVLSKLHTWCAAWTAASSTSSTSPGASSCTPGIRTITLMHVTELRQLVDSHLKNSQTAAARLPGPANPATVGYDVSQALAAPACVVHCQLGVSRSPSVVMLFYMDVLAPQLRAAASAAEAPLNIFHGLLNALVQARHRVRPNVCFSAQLLSLWRRLMQLDTPASPTRVV | not soluble |
| MFDFNDSMVSNAIIKVVGVGGGGGNAVQHMCEEVSDVEFFALNTDGQALSKSKVQNILQIGTNLTKGLGAGANPEIGKRAATEDRAKIEQLLEGADMVFITAGMGGGTGTGGAPVVAEVAKEMGILTVAVVTKPFPFEGPRRMKAAEQGIDELTKHVDSIITVPNEKLLSVLGKGASLIDAFNAANDVLGNAVKGVSELITKPGLINVDFADVRAVMTNMGLAMMGMGEASGENRAREAAEAAISSPLLEDINLDGAKGVIVNITAGMDMSIGEFEEVGEVIRSFISDEAIVIAGTVIDPDMSDSMKVTVVVTGIEKVAMKRGFGVEKTSSLQQSASSFSNKTSAPFLRKETEVVTGASNAPKTDSDDVNKSDIPSFLRRR | not soluble |
| MFDVLMYLFETYIHNEAELRVDQDRLERDLTDAGFDREDIYNALLWLEKLADYQDGLAEPMQLASDPLSMRIYTVEECERLDASCRGFLLFLEQIQVLNLETREMVIERVLALDTAEFDLEDLKWVILMVLFNIPGCENAYQQMEELLFEVNEGMLH | not soluble |
